Publication PMC4811774
One block for each substance: values may come before it.

Key:
[1] = biological target: Toc75 POTRA-His (protein fragment encompassing all three Toc75 POTRA domains and a C-terminal hexahistidine tag) (Arabidopsis thaliana) (UniProt Q9STE8); experiment: pull-down; solid phase binding: increasing amounts of POTRA-His immobilised on Ni-NTA resin, incubated with in vitro translated 35S-labelled proteins in HMK buffer (50 mM Hepes-KOH pH 7.5, 2 mM MgCl2, 40 mM KOAc) with 10 mM imidazole and 0.1% Triton X-100, 30 min, 23°C; phosphorimaging
[2] = biological target: TOC translocons in TOC75ΔP1-2#2 chloroplasts (Arabidopsis thaliana | Arabidopsis thaliana (endogenous in chloroplasts)) (UniProt Q9STE8); experiment: other; apparent Kd, isolated chloroplasts, 0.1 mM ATP and GTP; conditions: natural protein
[3] = biological target: TOC translocons in TOC75 chloroplasts (Arabidopsis thaliana | Arabidopsis thaliana (endogenous in chloroplasts)) (UniProt Q9STE8); experiment: saturation binding to isolated chloroplasts; apparent; increasing amounts of urea-denatured preSSU-FLAG-HIS with 10^7 isolated chloroplasts, 0.1 mM ATP and GTP, 26°C, 5 min (early import intermediate); chloroplasts reisolated through Percoll, anti-FLAG immunoblot, non-linear regression
[4] = biological target: TOC translocons in TOC75ΔP1#2 chloroplasts (Arabidopsis thaliana | Arabidopsis thaliana (endogenous in chloroplasts)) (UniProt Q9STE8); experiment: as above

- maximum binding, percent of added radiolabeled protein [1]: 77%
Substance: [35S]preSSU (from UniProt P10795 1-180) (natural protein)

- Kd [2]: 126 nM
Substance: preSSU-FLAG-HIS (from UniProt P10795 55-180)

- Kd [3]: 159 nM
- Kd [4]: 188 nM
Substance: preSSU-FLAG-HIS (from UniProt P10795 55-180) (natural protein)
